Biological target: human neonatal Fc receptor (FcRn) (human) (UniProt P55899)
Assay: BLI; Octet; biotinylated human FcRn on streptavidin-coated biosensors, antibody soluble; equilibrium binding; PBSA pH 5.6; tips regenerated in PBSA pH 7.4

Kd: 107 nM
B1: F5111 antibody, wild type (hIgG1 lambda) (antibody, V domains shown)
VH: QLQLQESGPGLVKPSQTLSLTCTVSGGSISSGGYYWSWIRQHPGKGLEWIGYIYYSGSTYYNPSLKSRVTISVDTSKNQFSLKLSSVTAADTAVYYCARTPTVTGDWFDPWGRGTLVTVSS
VL: NFMLTQPHSVSESPGKTVTISCTRSSGSIASNYVQWYQQRPGSSPTTVIYEDNQRPSGVPDRFSGSIDSSSNSASLTISGLKTEDEADYYCQSYDSSNVVFGGGTKLTVL

— article PMC11697773
